Kd data for 2 molecules are collected here from article PMC10611751 (2023).

Sequences and labels used below:
T1: Ankyrin-G ANK repeats 8-14 (UniProt O70511 275-500)
T1 chain: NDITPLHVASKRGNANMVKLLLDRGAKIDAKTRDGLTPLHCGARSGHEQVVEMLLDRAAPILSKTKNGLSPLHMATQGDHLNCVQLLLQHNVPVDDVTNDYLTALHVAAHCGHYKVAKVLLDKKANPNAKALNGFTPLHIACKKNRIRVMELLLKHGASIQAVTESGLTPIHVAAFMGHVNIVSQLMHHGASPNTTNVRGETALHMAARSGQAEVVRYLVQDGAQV

T2: AnkG R6-24 (Rattus norvegicus)
T2 chain: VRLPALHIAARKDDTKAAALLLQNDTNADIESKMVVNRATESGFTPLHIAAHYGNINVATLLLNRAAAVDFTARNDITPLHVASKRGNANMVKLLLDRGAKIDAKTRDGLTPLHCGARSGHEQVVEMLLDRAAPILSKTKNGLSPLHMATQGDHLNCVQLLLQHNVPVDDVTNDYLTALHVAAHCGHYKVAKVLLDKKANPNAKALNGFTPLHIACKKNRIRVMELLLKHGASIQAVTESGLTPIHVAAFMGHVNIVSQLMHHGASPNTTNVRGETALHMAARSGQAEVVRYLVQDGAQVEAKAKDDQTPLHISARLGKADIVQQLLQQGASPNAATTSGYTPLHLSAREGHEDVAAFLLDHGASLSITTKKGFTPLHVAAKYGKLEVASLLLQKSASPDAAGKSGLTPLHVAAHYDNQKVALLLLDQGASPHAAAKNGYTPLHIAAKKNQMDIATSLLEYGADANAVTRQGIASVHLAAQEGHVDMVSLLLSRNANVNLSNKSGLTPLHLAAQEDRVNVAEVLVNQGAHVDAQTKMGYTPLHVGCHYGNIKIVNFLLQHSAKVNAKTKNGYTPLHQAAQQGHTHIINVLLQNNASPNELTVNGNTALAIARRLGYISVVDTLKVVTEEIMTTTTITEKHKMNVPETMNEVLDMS

T3: p120 catenin 324-938 (mouse, UniProt P30999 324-938)
T3 chain: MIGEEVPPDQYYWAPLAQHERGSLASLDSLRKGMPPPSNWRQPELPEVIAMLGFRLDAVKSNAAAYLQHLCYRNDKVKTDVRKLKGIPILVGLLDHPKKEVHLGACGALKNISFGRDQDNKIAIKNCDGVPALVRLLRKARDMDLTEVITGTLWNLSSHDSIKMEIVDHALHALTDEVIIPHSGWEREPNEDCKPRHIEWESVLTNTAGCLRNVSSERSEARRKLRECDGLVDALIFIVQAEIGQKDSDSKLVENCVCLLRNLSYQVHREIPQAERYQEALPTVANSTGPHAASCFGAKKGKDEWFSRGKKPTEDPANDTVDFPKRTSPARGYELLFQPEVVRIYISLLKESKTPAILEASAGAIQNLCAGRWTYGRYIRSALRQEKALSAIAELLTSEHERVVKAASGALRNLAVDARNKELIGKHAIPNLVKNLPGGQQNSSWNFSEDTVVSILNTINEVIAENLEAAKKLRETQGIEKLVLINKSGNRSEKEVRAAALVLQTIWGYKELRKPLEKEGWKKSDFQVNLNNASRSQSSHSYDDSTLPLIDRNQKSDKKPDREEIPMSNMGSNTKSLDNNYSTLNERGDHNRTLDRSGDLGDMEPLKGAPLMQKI

T4: full-length β-catenin 1-781 (mouse, UniProt Q02248 1-781)
T4 chain: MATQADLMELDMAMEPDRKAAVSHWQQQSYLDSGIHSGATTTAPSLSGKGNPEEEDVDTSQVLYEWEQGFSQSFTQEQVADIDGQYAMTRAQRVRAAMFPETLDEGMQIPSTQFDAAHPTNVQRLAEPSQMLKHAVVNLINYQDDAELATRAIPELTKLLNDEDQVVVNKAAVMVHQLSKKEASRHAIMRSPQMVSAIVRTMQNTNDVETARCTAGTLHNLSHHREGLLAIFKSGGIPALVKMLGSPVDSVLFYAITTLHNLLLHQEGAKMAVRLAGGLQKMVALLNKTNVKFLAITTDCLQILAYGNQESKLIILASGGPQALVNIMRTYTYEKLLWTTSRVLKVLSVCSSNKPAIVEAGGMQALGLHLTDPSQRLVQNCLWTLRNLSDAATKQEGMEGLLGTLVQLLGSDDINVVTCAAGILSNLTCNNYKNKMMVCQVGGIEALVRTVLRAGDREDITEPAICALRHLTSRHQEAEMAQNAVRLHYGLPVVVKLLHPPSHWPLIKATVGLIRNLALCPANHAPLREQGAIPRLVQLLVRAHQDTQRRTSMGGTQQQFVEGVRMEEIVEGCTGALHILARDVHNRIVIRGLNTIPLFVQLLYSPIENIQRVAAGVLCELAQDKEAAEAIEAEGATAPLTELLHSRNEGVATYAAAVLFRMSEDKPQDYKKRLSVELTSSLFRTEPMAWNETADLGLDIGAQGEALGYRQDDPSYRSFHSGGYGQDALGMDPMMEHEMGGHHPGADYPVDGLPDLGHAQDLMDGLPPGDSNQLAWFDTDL

B1: E-cadherin C-terminal domain (residues 734-884) (domain or fragment)
chain: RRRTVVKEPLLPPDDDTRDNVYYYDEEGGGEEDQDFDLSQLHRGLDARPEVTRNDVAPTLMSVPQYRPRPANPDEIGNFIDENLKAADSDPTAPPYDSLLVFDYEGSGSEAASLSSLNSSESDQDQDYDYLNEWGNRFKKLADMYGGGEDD
B2: Ankyrin-G 24 ANK repeats (residues 38-855) (domain or fragment)
chain: KSDANASYLRAARAGHLEKALDYIKNGVDVNICNQNGLNALHLASKEGHVEVVSELLQREANVDAATKKGNTALHIASLAGQAEVVKVLVTNGANVNAQSQNGFTPLYMAAQENHLEVVRFLLDNGASQSLATEDGFTPLAVALQQGHDQVVSLLLENDTKGKVRLPALHIAARKDDTKAAALLLQNDTNADIESKMVVNRATESGFTPLHIAAHYGNINVATLLLNRAAAVDFTARNDITPLHVASKRGNANMVKLLLDRGAKIDAKTRDGLTPLHCGARSGHEQVVEMLLDRAAPILSKTKNGLSPLHMATQGDHLNCVQLLLQHNVPVDDVTNDYLTALHVAAHCGHYKVAKVLLDKKANPNAKALNGFTPLHIACKKNRIRVMELLLKHGASIQAVTESGLTPIHVAAFMGHVNIVSQLMHHGASPNTTNVRGETALHMAARSGQAEVVRYLVQDGAQVEAKAKDDQTPLHISARLGKADIVQQLLQQGASPNAATTSGYTPLHLSAREGHEDVAAFLLDHGASLSITTKKGFTPLHVAAKYGKLEVASLLLQKSASPDAAGKSGLTPLHVAAHYDNQKVALLLLDQGASPHAAAKNGYTPLHIAAKKNQMDIATSLLEYGADANAVTRQGIASVHLAAQEGHVDMVSLLLSRNANVNLSNKSGLTPLHLAAQEDRVNVAEVLVNQGAHVDAQTKMGYTPLHVGCHYGNIKIVNFLLQHSAKVNAKTKNGYTPLHQAAQQGHTHIINVLLQNNASPNELTVNGNTALAIARRLGYISVVDTLKVVTEEIMTTTTITEKHKMNVPETMNEVLDMS

What all share (experiment): ITC
A general note: In ITC the heat of successive injections is recorded.

For assay [1], the target named is T1, Ankyrin-G ANK repeats 8-14.
A further assay deals with T2, AnkG R6-24.
The target of a further assay is T3, p120 catenin 324-938.
The target of assay [2] is T4, full-length β-catenin 1-781.
Assay [3] has as its target B2.
The target in assay [4] is E-cadherin CTD site-1, 3 to A (mouse, UniProt P09803 734-884, Y755A | Y756A | Y757A | Y861A | Y863A | W867A).
Assay [5] concerns the target E-cadherin CTD site-3 to A (mouse, UniProt P09803 734-884, Y861A | Y863A | W867A).
For assay [6], the target named is E-cadherin CTD site-1 to A (mouse, UniProt P09803 734-884, Y755A | Y756A | Y757A).
Assay [7] has as its target E-cadherin CTD site-2 to A (mouse, UniProt P09803 734-884, Y829A | Y837A).
Assay [8] concerns the target E-cadherin CTD site-2, 3 to A (mouse, UniProt P09803 734-884, Y829A | Y837A | Y861A | Y863A | W867A).
The target in assay [9] is E-cadherin CTD site-1, 2 to A (mouse, UniProt P09803 734-884, Y755A | Y756A | Y757A | Y829A | Y837A).

Broadly, the Kd is the free concentration of one partner at which half of the binding sites on the other are occupied at equilibrium, for simple one-to-one binding. A low value points to tighter binding. Take B1: the Kd in [1] amounted to 5 µM; with AnkG R6-24, 2.9 µM; with p120 catenin 324-938 it was 1.7 µM; in assay [2] it was 0.036 µM; in assay [3] it was 2.8 µM.
For the molecule B2, the dissociation constant Kd in [4] was 4.9 µM; in assay [5], 4.2 µM; in assay [6], 2 µM; in [7] it was 2.9 µM; in assay [8], 3.3 µM; in [9], 6.3 µM.
